These results are taken from the Immune Epitope Database (IEDB).

Assay [1] deals with HLA-A*03:01. The experiment in a line: IEDB peptide-MHC binding, purified MHC/direct/fluorescence; filed as Kd, often an IC50 or EC50 that approximates it; ≥ and ≤ were set here for values at or beyond the usual limits of such assays.
Assay [2] addresses HLA-A*11:01. Described as above.
For assay [3], the target named is HLA-A*31:01. The experiment in a line: IEDB peptide-MHC binding, purified MHC/competitive/fluorescence; filed as Kd, often an IC50 or EC50 that approximates it; ≥ and ≤ were set here for values at or beyond the usual limits of such assays.
Assay [4] has as its target HLA-A*02:01. Described as above.
Assay [5] deals with HLA-A*02:16. Described as above.
In a further assay the target is HLA-A*24:02. The assay can be described thus: IEDB peptide-MHC binding, purified MHC/competitive/fluorescence; ≥ and ≤ were set here for values at or beyond the usual limits of such assays. Particulars: source organism: Vaccinia virus Copenhagen.
For the next assay, the target named is HLA-B*07:02. The description is as above. The following applies: source organism: Vaccinia virus Copenhagen.
Assay [6] deals with HLA-B*15:01. The description is as above. Particulars: source organism: Vaccinia virus Copenhagen.
Assay [7] addresses HLA-A*11:01. The assay can be described thus: IEDB peptide-MHC binding, purified MHC/competitive/fluorescence; filed as Kd, often an IC50 or EC50 that approximates it; ≥ and ≤ were set here for values at or beyond the usual limits of such assays.
Assay [8] deals with HLA-A*02:01. The assay can be described thus: IEDB peptide-MHC binding, purified MHC/direct/fluorescence; filed as Kd, often an IC50 or EC50 that approximates it; ≥ and ≤ were set here for values at or beyond the usual limits of such assays.
Assay [9] addresses HLA-A*02:12. The assay is described as above. The following applies: source organism: Brucella suis 1330.
Assay [10] has as its target HLA-A*02:16. The description is as above. Particulars: source organism: Brucella suis 1330.
In assay [11] the target is HLA-A*02:19. The assay is described as above. The following applies: source organism: Brucella suis 1330.
Assay [12] addresses HLA-A*26:01. Described as above. The following applies: source organism: Brucella suis 1330.
In assay [13] the target is HLA-B*15:01. The assay is described as above. The following applies: source organism: Brucella suis 1330.
Another assay has as its target HLA-B*18:01. The assay is described as above. The following applies: source organism: Brucella suis 1330.
For assay [14], the target named is HLA-B*46:01. The assay is described as above.
For assay [15], the target named is HLA-B*51:01. The assay is described as above. Particulars: source organism: Brucella suis 1330.
Assay [16] concerns the target HLA-B*57:01. The assay is described as above. The following applies: source organism: Brucella suis 1330.
In a further assay the target is HLA-A*23:01. The experiment in a line: IEDB peptide-MHC binding, purified MHC/competitive/fluorescence; filed as Kd, often an IC50 or EC50 that approximates it; ≥ and ≤ were set here for values at or beyond the usual limits of such assays.
The target of another assay is HLA-A*02:11. Described as above. The following applies: source organism: Entamoeba histolytica HM-1:IMSS.
Assay [17] concerns the target HLA-A*02:12. The description is as above. Particulars: source organism: Entamoeba histolytica HM-1:IMSS.
Assay [18] concerns the target HLA-A*02:19. Described as above. Particulars: source organism: Entamoeba histolytica HM-1:IMSS.
The target in assay [19] is HLA-A*03:01. The description is as above.
Assay [20] has as its target HLA-A*26:01. The description is as above. The following applies: source organism: Entamoeba histolytica HM-1:IMSS.
For another assay, the target named is HLA-A*68:02. Described as above. The following applies: source organism: Entamoeba histolytica HM-1:IMSS.
The target of a further assay is HLA-A*69:01. The description is as above.
Assay [21] concerns the target HLA-B*15:01. The assay is described as above.
The next assay has as its target HLA-B*27:03. The assay is described as above. Particulars: source organism: Entamoeba histolytica HM-1:IMSS.
The target in the next assay is HLA-B*39:01. Described as above. Particulars: source organism: Entamoeba histolytica HM-1:IMSS.
Assay [22] has as its target HLA-B*46:01. Described as above. The following applies: source organism: Entamoeba histolytica HM-1:IMSS.
Assay [23] addresses HLA-B*51:01. Described as above. Particulars: source organism: Entamoeba histolytica HM-1:IMSS.
For assay [24], the target named is HLA-B*57:01. Described as above.
The target of another assay is HLA-A*01:01. The assay can be described thus: IEDB peptide-MHC binding, purified MHC/direct/fluorescence; filed as Kd, often an IC50 or EC50 that approximates it; ≥ and ≤ were set here for values at or beyond the usual limits of such assays. Particulars: source organism: Camelpox virus M-96.
The target in assay [25] is HLA-A*31:01. Described as above. Particulars: source organism: Camelpox virus M-96.
The target in a further assay is HLA-B*08:02. The assay is described as above. The following applies: source organism: Variola virus.
The next assay addresses HLA-B*15:17. Described as above. The following applies: source organism: Camelpox virus M-96.
The next assay has as its target HLA-B*27:05. The assay is described as above. The following applies: source organism: Camelpox virus M-96.
The target in another assay is HLA-B*40:01. Described as above. The following applies: source organism: Camelpox virus M-96.
Another assay addresses HLA-B*48:01. The assay is described as above. The following applies: source organism: Camelpox virus M-96.
Another assay has as its target HLA-B*58:01. The assay is described as above. Particulars: source organism: Camelpox virus M-96.
Where [26] appears, read: source organism: Mycobacterium tuberculosis.
Where [27] appears, read: source organism: Coxiella burnetii RSA 493.
The mark [28] stands for this setting: source organism: Influenza A virus (A/Goose/Hong Kong/385.3/2000(H5N1)).
Setting [29] is: source organism: Brucella suis 1330.
Where [30] appears, read: source organism: Giardia lamblia ATCC 50803.
The mark [31] stands for this setting: source organism: Entamoeba histolytica HM-1:IMSS.
The mark [32] stands for this setting: source organism: Escherichia coli 536.
Setting [33] is: source organism: Camelpox virus M-96.
The mark [34] stands for this setting: source organism: Vaccinia virus Copenhagen.

RLNFFTPTK: the Kd in the assay with HLA-A*03:01 [1] (setting [26]) came out at 0.0059 µM; with HLA-A*11:01 [2] (setting [26]) it was 0.0031 µM; with HLA-A*31:01 [3] (source organism: Mycobacterium tuberculosis variant bovis BCG str. Pasteur 1173P2) it was 0.0023 µM.

As to FLFLYWPHY, the values for the dissociation constant Kd with HLA-A*02:01 [4] (setting [27]) and in the assay with HLA-A*02:16 [5] (setting [27]) were 0.628 µM and 1.74 µM, respectively.

In the case of RIPNSLHSL, the figures for the IC50 in the assay with HLA-A*24:02, with HLA-B*07:02 and with HLA-B*15:01 [6] were 0.656 µM, 37.2 µM and 22.7 µM, respectively.

Take IIAARNIVR: the figures for the dissociation constant (Kd) in the assay with HLA-A*03:01 [1] (setting [28]), with HLA-A*11:01 [2] (setting [28]) and with HLA-A*31:01 [3] (source organism: Influenza A virus H3N2) were 1.54 µM, at least 20 µM and 0.00363 µM, respectively.

Regarding KTYFEKVERLK, the dissociation constant (Kd) with HLA-A*11:01 [7] (source organism: Influenza A virus (A/swine/Scotland/410440/94(H1N2))) was 0.0287 µM.

Turning to DVNGIRKPK, the Kd in the assay with HLA-A*03:01 [1] (source organism: Amur virus), in the assay with HLA-A*11:01 [2] (source organism: Amur virus) and in the assay with HLA-A*31:01 [3] (source organism: Orthohantavirus dobravaense) was at least 20 µM throughout.

For MRIGSMATL, the dissociation constant Kd with HLA-A*02:01 [8] (setting [29]), with HLA-A*02:12 [9], with HLA-A*02:16 [10], in the assay with HLA-A*02:19 [11], with HLA-A*03:01 [1] (setting [29]) and with HLA-A*26:01 [12] was at least 20 µM in each case. The Kd with HLA-B*15:01 [13], in the assay with HLA-B*18:01, in the assay with HLA-B*46:01 [14] (setting [29]), in the assay with HLA-B*51:01 [15] and with HLA-B*57:01 [16] was at least 20 µM each time.

For the sequence RVHSFFIQY, the Kd in the assay with HLA-A*03:01 [1] (setting [30]) is 0.0681 µM; in the assay with HLA-A*11:01 [2] (setting [30]), at most 0.001 µM; with HLA-A*31:01 [3] (setting [30]), 0.161 µM.

In the assay with HLA-A*11:01 [7] (source organism: Homo sapiens), SSSPQPKKK came in with a Kd of 0.554 µM.

SSFQDILLR: the Kd with HLA-A*03:01 [1] (source organism: Influenza A virus (A/Memphis/14/1998(H3N2))) was at least 20 µM; with HLA-A*31:01 [3] (source organism: Influenza A virus (A/X-31(H3N2))) it was 0.309 µM.

In the assay with HLA-A*23:01 (setting [31]), WYMRALYQK registered a Kd of 0.388 µM.

Regarding WAKLLKQKW, the Kd with HLA-A*02:01 [4] (setting [31]), with HLA-A*02:11, with HLA-A*02:12 [17], with HLA-A*02:16 [5] (setting [31]), with HLA-A*02:19 [18] and in the assay with HLA-A*03:01 [19] (setting [31]) was at least 20 µM in each case. The Kd in the assay with HLA-A*26:01 [20], with HLA-A*68:02, in the assay with HLA-A*69:01 (setting [31]), with HLA-B*15:01 [21] (setting [31]), with HLA-B*27:03 and with HLA-B*39:01 was at least 20 µM throughout. Besides, the Kd with HLA-B*46:01 [22] was at least 20 µM; with HLA-B*51:01 [23], at least 20 µM; in the assay with HLA-B*57:01 [24] (setting [31]), 0.227 µM.

Take TVKRYLQAK: the figures for the equilibrium dissociation constant (Kd) in the assay with HLA-A*03:01 [19] (setting [32]) and with HLA-A*31:01 [3] (setting [32]) were 2.84 µM and 0.0557 µM, respectively.

As to FTENGPWMY, the dissociation constant Kd with HLA-A*01:01 was 0.0027 µM; with HLA-A*02:01 [8] (setting [33]), at least 20 µM; with HLA-A*03:01 [1] (setting [33]) it was at least 20 µM; with HLA-A*31:01 [25], at least 20 µM; with HLA-B*08:02, at least 20 µM; with HLA-B*15:17 it was 0.0052 µM. For the same sequence, the dissociation constant (Kd) in the assay with HLA-B*27:05, with HLA-B*40:01, with HLA-B*46:01 [14] (setting [33]), with HLA-B*48:01, with HLA-B*58:01 and with HLA-A*11:01 [7] (setting [34]) was at least 20 µM throughout. The Kd with HLA-A*69:01 (setting [34]), with HLA-B*15:01 [21] (setting [34]) and in the assay with HLA-B*57:01 [24] (setting [34]) was at least 20 µM throughout.

In the case of GMSSRAIAR, the Kd with HLA-A*03:01 [19] (setting [32]) was determined as 0.015 µM; with HLA-A*31:01 [3] (setting [32]), 0.0085 µM.

As for TFYAEFPKK, the equilibrium dissociation constant (Kd) with HLA-A*23:01 (source organism: Escherichia coli F11) was 0.0662 µM.

As a reminder, the Kd is the free concentration of one partner at which half of the binding sites on the other are occupied at equilibrium, for simple one-to-one binding. Read a low Kd as tighter binding. By IC50 is commonly meant the concentration that gives 50% inhibition. Higher therefore signals weaker potency in that assay.
